Test results taken from patent publication US20200247855A1 (published 2020).

How the values were obtained:
Assay in all cases: BLI
[1] = biological target: CXCL8_HUMAN (human, UniProt P10145 28-99)
[2] = biological target: CXCL1_HUMAN (human, UniProt P09341 35-107)
[3] = biological target: CXCL5
[4] = biological target: CXCL2
[5] = biological target: CXCL6
[6] = biological target: CXCL13
[7] = biological target: CXCL3_HUMAN (human, UniProt P19876 35-107)
[8] = biological target: CXCL4
[9] = biological target: CXCL10_HUMAN (human, UniProt P02778 22-98)
CXCL10_HUMAN, sequence (P02778 22-98): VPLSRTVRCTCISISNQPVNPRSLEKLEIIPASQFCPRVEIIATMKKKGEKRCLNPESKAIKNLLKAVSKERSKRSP

[10] = biological target: T1, CXCL11_HUMAN (human, UniProt O14625 22-94)
T1 chain: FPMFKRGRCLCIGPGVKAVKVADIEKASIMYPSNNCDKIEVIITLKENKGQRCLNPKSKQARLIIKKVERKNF

CXCL3_HUMAN, sequence (P19876 35-107): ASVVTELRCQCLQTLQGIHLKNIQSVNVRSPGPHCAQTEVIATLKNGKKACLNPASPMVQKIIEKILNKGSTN
CXCL8_HUMAN, sequence (P10145 28-99): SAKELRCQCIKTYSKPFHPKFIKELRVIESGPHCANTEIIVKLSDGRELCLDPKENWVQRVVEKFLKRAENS
CXCL1_HUMAN, sequence (P09341 35-107): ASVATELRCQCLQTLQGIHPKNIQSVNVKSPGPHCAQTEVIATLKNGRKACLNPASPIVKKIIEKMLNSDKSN

B1: P1170_IXORI (other)
chain: LGDEDQLFSVEYCGTNCTQQDDGKWTPCSGKNGKCKCYHEDGKRYGLCLYTEYTDFSQYPNPEGSEIENTRPRP
B1 showed a Kd [1] of 12.3 nM and a Kd [2] of 59.6 nM.

B2: P1174_IXORI (other)
chain: LNNENELFSVEYCGANCTQQDNGSWTKCKGNCTCYHEDGKRYGLCLSTEYTDFTQFPKPTSEEIADASPRPKETNSH
B2 showed a Kd [1] of 81.7 nM and a Kd [2] of 15.4 nM.

B3: P458_IXORI (other)
chain: GSKQPGAAGSSSDSVEAVFCPTNCTKGTNGAWSGCSDDCICVHVGENTEGSCMKFSGDYDYPTPEA
B3 was tested, and the Kd [3] was 19.1 nM, the Kd [4] was 4.55 nM and the Kd [5] was 4.97 nM. For the same binder, the Kd [6] was 13.8 nM, the Kd [2] was 16.6 nM and the Kd [7] was 7.83 nM.

B4: P1162_IXORI (other)
chain: LNDEELFTVDYCGTNCTQQPNGSWTTCPGNCSCYHEDGKTDGFCLSTEYTDFTQFPNLTSEEMDAATPRPE
B4 gave a Kd [3] of 32.1 nM, a Kd [4] of 14.4 nM and a Kd [1] of 12.2 nM. It also gave a Kd [2] of 2.66 nM and a Kd [7] of 60.1 nM.

B5: P1172_IXORI (other)
chain: LHEDEIFTVDYCGTNCTKQSNGSWTTCPGNCSCYHEDGKTDGFCLSTEYTDFTQFPNLTSEEMDAATPRPE
Work on B5 yielded a Kd [3] of 59.3 nM, a Kd [4] of 26 nM and a Kd [1] of 26.7 nM. It also gave a Kd [2] of 5.59 nM.

B6: P1229_IXORI (other)
chain: DDEFFTVDYCGMNCTLQQDGSWTPCTQKNAECKCYHESGSSVGLCLSTAYTDFNQFGDPNNSDLDAATPRHPDASSR
B6 showed a Kd [1] of 30.7 nM and a Kd [2] of 13.4 nM.

B7: P1080_IXORI (other)
chain: SAGSKGSSAPQSSGDSVVAEFCDTNCTMKKDGKWTECNGDCFCVHVGNETVGRCMRLDGDYDYTSSKTTRRNKKTRNGLCRLDRNRTTVDYPERNTREP
In the case of B7, the Kd [3] is reported as 56.6 nM, the Kd [4] is reported as 392 nM and the Kd [5] is reported as 11 nM. It also gave a Kd [8] of 2310 nM, a Kd [9] of 1260 nM and a Kd [10] of 73.3 nM. For the same binder, the Kd [6] was 1110 nM, the Kd [2] was 55.1 nM and the Kd [7] was 124 nM.

B8: P1127_IXORI (other)
chain: AGKDDEHFSVDYCGMNCTQQEDGSWTACSGRNGECRCYHESGKRSGLCLSTTYIDFSEYGNLSDSDIAAASPRLSMKESH
With B8 the Kd [3] was 26.6 nM, the Kd [4] was 27.8 nM and the Kd [1] was 13.3 nM. The Kd [2] was 1.42 nM and the Kd [7] was 68.8 nM.

B9: P675_IXORI (other)
chain: GSNQLSGPQSSANSNDAVFCDTNCTQGTDGAWSGCRGDCFCVHVGNSTEGRCIELIGDFDYSTPGAED
B9 showed a Kd [3] of 34.2 nM, a Kd [4] of 24.8 nM and a Kd [5] of 7.68 nM. The Kd [8] was 422 nM, the Kd [9] was 3120 nM and the Kd [10] was 7.73 nM. For the same binder, the Kd [6] was 582 nM, the Kd [2] was 9.99 nM and the Kd [7] was 35.7 nM.

B10: EVA3_RHISA (protein)
chain: LVSTIESRTSGDGADNFDVVSCNKNCTSGQNECPEGCFCGLLGQNKKGHCYKIIGNLSGEPPVVRR
Work on B10 yielded a Kd [1] of 2.57 nM, a Kd [2] of 5.73 nM and a Kd [7] of 7.37 nM.

B11: P1168_IXORI (other)
chain: GQDTDGKEKSDEYELFTVEYCGTNCTQLENGSWTACTGKNGTCRCFHENDKKVGLCLSTEYTDFSEYPDPNSEEIKAASPLP
B11 showed a Kd [4] of 29.9 nM, a Kd [1] of 20.7 nM and a Kd [2] of 5.91 nM.

B12: P1074_IXORI (other)
chain: GSKESSAHQSSDDSIKAEFCDAKCTMKTDGKWTQCHGGCFCVHVGNETEGRCMRLDGDYDYPSTQPEE
Binder B12 has a Kd [3] of 42.7 nM, a Kd [8] of 157 nM and a Kd [9] of 40.7 nM. The Kd [10] was 12 nM, the Kd [6] was 95.8 nM and the Kd [2] was 27.8 nM. For the same binder, the Kd [7] was 24 nM.

B13: P1166_IXORI (other)
chain: GPETKEDKKSDVYELFTVEYCGTNCTLLTNGRWTACTGKKGTCRCYHESGEKVGLCLSTEYTDFSEYPNPKSSEIDAAAPLPRETH
B13 was tested, and the Kd [4] was 149 nM, the Kd [1] was 129 nM and the Kd [2] was 12.9 nM.

B14: P1124_IXORI (other)
chain: DSKGTSDSQDSTKSIKVDFCETNCTKTDGGWTGCTGDCICVSVGDSIEGRCMDFG
B14 showed a Kd [3] of 26.4 nM, a Kd [4] of 13.8 nM and a Kd [5] of 231 nM. The Kd [6] was 256 nM, the Kd [2] was 7.61 nM and the Kd [7] was 8.84 nM.

B15: P1090_IXORI (other)
chain: GSKELSGPESSENSIEAAFCDTNCTEGTDGVWSGCSAGCFCVHVGNSTVGRCMTFNGVDGG
Binder B15 has a Kd [3] of 43 nM, a Kd [4] of 3.03 nM and a Kd [5] of 2.82 nM. It also gave a Kd [9] of 23.9 nM, a Kd [10] of 3.85 nM and a Kd [6] of 12.5 nM. The Kd [2] was 3.55 nM and the Kd [7] was 7.67 nM.

B16: P1095_IXORI (other)
chain: HSPVAGSEVQKLTSDPNDDIDVSYCGMNCTVVNGKSDECSENCKCLHEGDDPKGICVAITYFGDWGDPNDDPKINEATPQTQIFEKKRK
B16 was tested, and the Kd [1] was 110 nM.

B17: P1132_IXORI (other)
chain: LSDEDELFSVEYCGTNCTKQDTGSWTTCSGNCTCYHEDGKKVGLCLSTEYTDFTKFPKPTSEEIANARPLPKREKTLN
B17 was tested, and the Kd [3] was 152 nM, the Kd [4] was 18.6 nM and the Kd [1] was 32.8 nM. It also gave a Kd [2] of 11.9 nM.

B18: P1078_IXORI (other)
chain: GSKGSSAQQSSHDSIKAEFCETNCTMKTGGKWTQCHGGCFCVHVGNETVGRCIKLDGDYDYPSSKHEE
Work on B18 yielded a Kd [3] of 39.2 nM, a Kd [4] of 68.3 nM and a Kd [5] of 9.24 nM. The Kd [10] was 16.7 nM, the Kd [6] was 255 nM and the Kd [2] was 6.35 nM. For the same binder, the Kd [7] was 43.8 nM.

B19: P1096_IXORI (other)
chain: HTTVTGSVEGKPNNPNEDIEVSYCRMNCTVENGVSSACSGDCVCVHRDNEPNGICVEITYFGDFGDPSQDPSIDEAAPRESVSKRRSNGES
With B19 the Kd [1] was 44.7 nM.

B20: P1104_IXORI (other)
chain: ESKEASASQGPGKSFKVEFCETNCTENNGVWSGCTGDCICVSVGDSKEGRCMDLGDKVIDTPVAQG
With B20 the Kd [3] was 245 nM, the Kd [4] was 82.3 nM and the Kd [5] was 34.3 nM. For the same binder, the Kd [6] was 220 nM, the Kd [2] was 14.4 nM and the Kd [7] was 43.7 nM.

B21: P1134_IXORI (other)
chain: NEEVFTVEYCGMNCTQKSDGTWTECSGKNKDCRCYHESDAREGLCLSTEYTDFSQFETPSNSDLEAATPRPRKTLYPVRNPHGPKTRGLGYDKRILRDRVKFLI
B21 showed a Kd [2] of 27.3 nM.

B22: P1100_IXORI (other)
chain: GSKGSSASQSSDNSVVAKFCDTNCTINEGGKWTECKGGCFCVHVGNETVGRCMKLDGDYDYPSPKPEE
In the case of B22, the Kd [3] is reported as 50.8 nM, the Kd [4] is reported as 185 nM and the Kd [5] is reported as 15.2 nM. It also gave a Kd [9] of 380 nM, a Kd [10] of 102 nM and a Kd [6] of 714 nM. The Kd [2] was 49.9 nM and the Kd [7] was 55.9 nM.

B23: P1077_IXORI (other)
chain: GSKQLIGPQSSTNSIKAEFCDTNCTAGTNGIWNGCSGDCFCTHVGNSTEGRCMKITGFDEYPTSEAEE
Work on B23 yielded a Kd [3] of 55.7 nM, a Kd [4] of 264 nM and a Kd [5] of 29.3 nM. For the same binder, the Kd [10] was 538 nM, the Kd [2] was 7.53 nM and the Kd [7] was 16 nM.

B24: P1086_IXORI (other)
chain: GSKGQRASQVSETSITAEFCDTSCTQGTDKTWSGCSGDCFCVHVGNDTEGRCMRWDGDYPSAEEEE
B24 gave a Kd [3] of 26 nM, a Kd [4] of 34 nM and a Kd [5] of 10.7 nM. It also gave a Kd [9] of 18.7 nM, a Kd [6] of 22.7 nM and a Kd [2] of 11.4 nM. It also gave a Kd [7] of 15.2 nM.

B25: P942_IXORI (other)
chain: NQLSGPQSSANSNEAVFCDTNCTQGTDEAWSGCRGDCFCVYVGNSTEGRCMMLSGDFDYSTPGAED
For B25, the Kd [3] was 21.1 nM, the Kd [4] was 6.48 nM and the Kd [5] was 7.28 nM. The Kd [8] was 148 nM, the Kd [9] was 133 nM and the Kd [10] was 12.4 nM. For the same binder, the Kd [6] was 39.5 nM, the Kd [2] was 3.09 nM and the Kd [7] was 5.04 nM.

B26: P1128_IXORI (other)
chain: KDDEHFSVDYCGMNCTQQEDGSWTACSGRNEECRCYHESGKKNGLCLSTTYIDFSQYGNPSDSDIAAASPRP
With B26 the Kd [3] was 62.2 nM, the Kd [4] was 5.57 nM and the Kd [1] was 2.3 nM. The Kd [2] was 0.722 nM and the Kd [7] was 38.5 nM.
